Patent US20240018262A1 (INNOBATION BIO, published 2024)

B1: 7C6 antibody (antibody, V domains shown)
VH: QVQLQQPGAELVKPGASVKLSCKASGYTFTTYYMYWVKQRPGQGLEWIGEINPSNGGTNFNEKFKSKATLTVDKSSSTAYMQLSSLTSEDSAVYYCTTFAYWGQGTLVTVSA
VL: DIVMTQSPSSLSASLGGKVTITCKASQDINKYIVWYQHKPGKGPRLLIHYTSILQPGIPSRFSGSGSGRDYSFSISNLEPEDIATYYCLQYDNLWTFGGGTKLEIK
notes: Mouse hybridoma monoclonal antibody, detected with anti-mouse IgG
B2: 7B9 antibody (antibody, V domains shown)
VH: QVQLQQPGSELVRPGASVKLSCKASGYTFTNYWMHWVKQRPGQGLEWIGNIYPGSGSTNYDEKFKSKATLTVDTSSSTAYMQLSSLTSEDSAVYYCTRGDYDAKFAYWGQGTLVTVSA
VL: DIVMTQSPAIMSASPGEKVTMTCRASSSVSSSYLHWYQQKSGASPKLWIYSTSKLASGVPARFSGSGSGTSYSLTISSVEAEDAATYYCQQYSGYPLITFGAGTKVELK
notes: as for B1
B3: 8B2 antibody (antibody, V domains shown)
VH: QVQLQQPGAELVKPGASVKMSCKASGYTFTSYNMHWVKQTPGQGLEWIGAIYPGNGYTSYNQKFKGKATLTADKSSSTAYMQLSSLTSEDSAVYYCARGGGPFAYWGQGTLVTVSA
VL: DIVMTQSHKFMSTSVGDRVSITCKASQDVGTAVAWYQQKPGQSPKLLIYWPSTRHTGVPDRFTGSGSGTDFTLTISNVQSEDLADYFCQQYSSYPFTFGSGTKLEIK
notes: as for B1
B4: 1A8 antibody (antibody, V domains shown)
VH: QVQLQQPGSELVRPGASVKLSCKASGYTFTSYWMHWVKQRHGQGLEWIGNIYPGSGSTNYDEKFKSKGTLTVDTSSRTAYMHLSSLTSEDSAVYYCTRGHYDYAMDYWGQGTSVTVSS
VL: DIVMTQSPSSLSASLGDTITITCHASQNINVWLSWYQQKPGNIPKLLIYKTSNLHTGVPSRFSGSGSGTGFTLTISSLQPEDIATYYCQQGQSYPWTFGGGTKLEIK
notes: as for B1
B5: 10E9 antibody (antibody, V domains shown)
VH: EVQLEESGTVLARPGASVKMSCKASGYTFTSYWMHWIKQRPGQGLEWIGAIYPGNSDTSYNQKFKGKAKLTAVTSTSTAYMELSSLTNEDSAVYYCTRGEYDYVLAYWGQGTLVTVSA
VL: DIVMTQSPATLSVTPGDSVSLSCRASQSISNNLHWYQQKSHESPRLLIKFASQSISGIPSRFSGSGSGTDFTLSINSVETEDFGMYFCQQSNSWPHMYTFGGGTKLEIK
notes: Mouse hybridoma monoclonal antibody, detected with anti-mouse IgG; Used as hybridoma culture supernatant in the ELISA
B6: 5E11 antibody (antibody, V domains shown)
VH: QVQLKQSGAELMKPGASVKISCKATGYTFSRYWIEWVKQRPGHGLEWIGEILPGSGSTSYNEKFKGKATFTADTSSNTAYMQLSSLTSEDSAVYYCARSARATYYFDYWGQGTTLTVSS
VL: DIQMTQTTSSLSASLGDRVTISCWASQDISNYLNWYQQKPDGTVKLLIYYTSTLHSGVPSRFSGSGSGTDYSLTISNLEQEDIATYFCQQGNALPYTFGGGTKLEIK
notes: as for B1

Legend:
[1] = biological target: T1, GPC3 protein (Acrobiosystems, cat #GP3-H52H4) (UniProt P51654 25-559); assay: ELISA, GPC3 protein coated at 100 ng/well, 100 µl hybridoma culture, anti-mIgG-HRP
T1 construct: Bought protein coated on the ELISA plate at 100 ng/well; also called Glypican 3; GPC3 antigen
Experimental: First, in order to encode the GPC3 peptide, GPC3 protein (Acrobiosystems, cat #GP3-H52H4) was dispensed into a 96-well plate at an amount of […] and reacted overnight at 4° C. Then, after treatment with 1 X PBST containing 3% BSA, it was blocked for 30 minutes at room temperature.
100 μl of hybridoma cell culture of each clone producing 10E9, 8B2, 7C6, 7B9, 5E11 or 1A8 antibody was treated in each well, reacted at room temperature for 2 hours, and then washed three times with 1 X PBST. The secondary antibody ([…], 1:10,000) was treated and reacted at room temperature for 30 minutes, washed three times with 1 X PBST, and then treated with TMB for color development and reacted at room temperature for 5 minutes. Finally, the reaction was terminated by treatment with a stop solution of 1N H2SO 4, and then the absorbance was measured at 450 nm.

[2] = biological target: T2, GPC3 expressed on hepatoma cell line HepG2 (human, UniProt P51654 25-554); assay: flow cytometry on HepG2 cells, 1 µg antibody, PE anti-mouse IgG secondary; mean fluorescence
T2 construct: whole, on cells; also called GPC3-expressing tumor cells (HepG2); cells expressing GPC3
Experimental: (§1) First, hepatoma cell line HepG2 expressing GPC3 was reacted with 1 μg of each of 10E9, 8B2, 7C6, 7B9, 5E11, and 1A8 antibodies for 30 minutes, and then, after staining the surface with a secondary antibody, it was measured by flow cytometry.
(§2) GPC3 antibody (Sino biology Glypican3 APC cat #100393-R024-A, 10 u.1) was used as a positive control, and PE-conjugated anti-mouse IgG antibody (PE-conjugated goat anti-mouse IgG; Biolegend Inc., cat #405307, USA, 5 μl) was used as a secondary antibody.

[3] = biological target: T2, GPC3 expressed on hepatoma cell line …; assay: flow cytometry on HepG2 cells, 1 µg antibody, PE anti-mouse IgG secondary; median fluorescence
Experimental: as §1, §2

T1 sequence (P51654 25-559 limits assumed): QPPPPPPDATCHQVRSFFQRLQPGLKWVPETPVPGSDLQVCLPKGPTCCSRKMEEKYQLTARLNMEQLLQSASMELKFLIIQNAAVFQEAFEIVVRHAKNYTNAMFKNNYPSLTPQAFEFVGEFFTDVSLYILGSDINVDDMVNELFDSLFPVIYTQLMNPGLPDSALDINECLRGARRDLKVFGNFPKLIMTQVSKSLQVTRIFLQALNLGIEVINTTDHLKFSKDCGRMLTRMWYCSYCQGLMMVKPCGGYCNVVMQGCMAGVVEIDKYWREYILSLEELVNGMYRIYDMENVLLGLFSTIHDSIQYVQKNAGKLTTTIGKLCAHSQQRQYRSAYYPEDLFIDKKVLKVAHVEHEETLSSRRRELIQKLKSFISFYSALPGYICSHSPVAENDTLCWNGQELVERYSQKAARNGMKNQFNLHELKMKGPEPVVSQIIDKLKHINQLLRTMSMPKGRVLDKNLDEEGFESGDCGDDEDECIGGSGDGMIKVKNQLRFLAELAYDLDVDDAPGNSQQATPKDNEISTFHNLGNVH
T2 sequence (P51654 25-554 limits assumed): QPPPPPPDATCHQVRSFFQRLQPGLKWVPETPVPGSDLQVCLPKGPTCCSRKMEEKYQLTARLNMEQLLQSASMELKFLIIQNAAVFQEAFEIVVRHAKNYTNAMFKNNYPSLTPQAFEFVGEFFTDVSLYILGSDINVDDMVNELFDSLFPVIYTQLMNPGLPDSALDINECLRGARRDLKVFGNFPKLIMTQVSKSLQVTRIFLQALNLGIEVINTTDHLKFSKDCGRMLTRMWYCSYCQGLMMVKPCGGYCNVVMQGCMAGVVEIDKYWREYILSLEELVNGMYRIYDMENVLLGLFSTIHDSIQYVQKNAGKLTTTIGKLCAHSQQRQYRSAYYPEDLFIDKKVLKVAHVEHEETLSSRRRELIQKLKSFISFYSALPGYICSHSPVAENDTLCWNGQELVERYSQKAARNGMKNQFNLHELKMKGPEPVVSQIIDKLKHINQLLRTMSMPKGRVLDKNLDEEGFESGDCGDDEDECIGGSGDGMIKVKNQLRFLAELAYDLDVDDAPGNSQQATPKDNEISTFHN

Binder	OD450 measurement [1]	Mean [2]	Median [3]
B1	2.88 OD450	81400	61800
B2	2.54 OD450	27300	22000
B3	1.01 OD450	40000	31400
B4	2.65 OD450	36600	29000
B5	2.32 OD450	33000	25200
B6	0.942 OD450	52600	40200
